In article PMC11245307, “Evolutionary adaptation of an HP1-protein chromodomain integrates chromatin and DNA sequence signals” (eLife, 2024) one finds Kd data, which are given here for one molecule.

Ends that are not written are not given here. Me3 = trimethyl (on lysine, trimethyl-lysine)

Common to all, as to test: ITC; chromodomain at 100 µM, H3K9me3 peptide at approximately 1 mM; 20 mM Tris, pH 8.0, 25 mM NaCl, 2 mM β-mercaptoethanol; 20°C; MicroCal iTC200, sixteen 2.5 µl injections
Common to all, as to conditions: both partners purified

Test [1] concerns the target T1, Rhino chromodomain, wildtype construct (Rhino residues 20-90) (D. melanogaster, UniProt Q7JXA8 20-90).
T1 construct: Rhino (HP1d), D. melanogaster, chromodomain construct spanning residues 20-90; Expressed as His6-SUMO-RhinoCD in pET-28; the tag was removed with Ulp1 protease; also called RhinoCD; wildtype domain; source: E. coli BL21-CodonPlus (DE3)-RIPL, purified (Ni-NTA, Ulp1 cleavage, ion exchange, Superdex75); not shown: His6, N-terminal, cleaved; SUMO, N-terminal, cleaved
T1 sequence (looked up): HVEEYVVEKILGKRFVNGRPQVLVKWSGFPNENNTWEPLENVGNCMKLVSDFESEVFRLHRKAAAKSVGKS

Test [2] has as its target T2, Rhino chromodomain G31A (Rhino residues 20-90) (D. melanogaster, UniProt Q7JXA8 20-90, G31A).
T2 construct: Rhino (HP1d), D. melanogaster, chromodomain construct spanning residues 20-90, with G31A; also called G31A mutant; source: E. coli BL21-CodonPlus (DE3)-RIPL, purified (Ni-NTA, Ulp1 cleavage, ion exchange, Superdex75); not shown: His6, N-terminal, cleaved; SUMO, N-terminal, cleaved
T2 sequence (looked up): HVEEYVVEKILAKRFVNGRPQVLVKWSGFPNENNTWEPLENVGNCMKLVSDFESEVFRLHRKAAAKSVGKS

Test [3] deals with T3, Rhino chromodomain G31D (Rhino residues 20-90) (D. melanogaster, UniProt Q7JXA8 20-90, G31D).
T3 construct: Rhino (HP1d), D. melanogaster, chromodomain construct spanning residues 20-90, with G31D; also called Rhino^G31D chromodomain; source: E. coli BL21-CodonPlus (DE3)-RIPL, purified (Ni-NTA, Ulp1 cleavage, ion exchange, Superdex75); not shown: His6, N-terminal, cleaved; SUMO, N-terminal, cleaved
T3 sequence (looked up): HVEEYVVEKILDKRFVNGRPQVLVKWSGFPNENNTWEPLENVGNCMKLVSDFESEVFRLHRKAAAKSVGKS

B1: H3K9me3 peptide (KQTAR-K[me3]-STGGK) (peptide)
peptide: KQTARK(Me3)STGGK
notes: histone H3 N-terminal tail, K4 to K14 with K9 trimethylated; also called H3K9me3-modified histone tail peptide; synthetic H3K9me3 peptides; source: synthetic peptide; bought: AnaSpec, Inc
The term Kd denotes the free concentration of one partner at which half of the binding sites on the other are occupied at equilibrium, for simple one-to-one binding. Consider B1, for which the equilibrium dissociation constant (Kd) in test [1] worked out at 30.9 ± 3 µM; in test [2], 43.5 ± 8.6 µM; in test [3] it was 31.1 ± 3.2 µM.
